EC50 and IC50 data for one sequence are collected here from CN105601719A, “拟组织金属蛋白酶抑制因子多肽及其应用” (Suzhou Puluoda Biological Science and Technology Co Ltd, priority 2016, dated 2016).

A word on the EC50: it is the concentration giving half of the maximal effect. Lower therefore signals higher potency in that assay. As usually defined, the IC50 is the point on the concentration scale where inhibition reaches its midpoint.

In assay [1] the test system is human osteoblasts (人成骨细胞). Description: Growth of human osteoblasts cultured in vitro (MTT colorimetric assay). It is filed as cell-based. To be noted: 48 h, absorbance 620 nm. For orientation: Formazan colour is commonly taken as a measure of viable cells.
In assay [2] the target is T1, recombinant human matrix metalloproteinase-2 (重组人基质金属蛋白酶-2) (Homo sapiens, UniProt P08253).
T1 construct: 该酶用0.01μM的基质金属蛋白酶-3活性位点活化; made in house; host or cells: E. coli
T1 sequence (P08253 110-660): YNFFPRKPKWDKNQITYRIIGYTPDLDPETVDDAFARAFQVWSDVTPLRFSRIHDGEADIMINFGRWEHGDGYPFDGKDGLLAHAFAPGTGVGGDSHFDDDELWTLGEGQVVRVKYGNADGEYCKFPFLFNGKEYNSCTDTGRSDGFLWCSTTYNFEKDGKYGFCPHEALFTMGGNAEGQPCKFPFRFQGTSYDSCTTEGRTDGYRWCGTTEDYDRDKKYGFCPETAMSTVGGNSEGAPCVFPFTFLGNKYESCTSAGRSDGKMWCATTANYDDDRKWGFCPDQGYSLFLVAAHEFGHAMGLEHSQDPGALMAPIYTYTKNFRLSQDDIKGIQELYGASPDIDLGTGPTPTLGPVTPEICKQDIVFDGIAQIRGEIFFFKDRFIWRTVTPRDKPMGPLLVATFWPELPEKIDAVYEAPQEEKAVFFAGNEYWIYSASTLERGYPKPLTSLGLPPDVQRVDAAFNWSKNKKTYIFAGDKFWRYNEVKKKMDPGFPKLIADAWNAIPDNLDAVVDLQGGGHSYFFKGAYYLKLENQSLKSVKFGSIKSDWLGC
Description: In vitro inhibition of matrix metalloproteinase-2 (fluorogenic peptide cleavage). The class given is biochemical. To be noted: MMP-2; substrate Mca-Pro-Leu-Gly-Leu-Dpa-Ala-Arg-NH2; pH 7.4; 37 °C; 100 μl.

Assay [3] deals with recombinant human matrix metalloproteinase-9 (重组人基质金属蛋白酶-9) (Homo sapiens, UniProt P14780). Description: In vitro inhibition of matrix metalloproteinase-9 (fluorogenic peptide cleavage). The class given is biochemical. Particulars: MMP-9; same fluorogenic substrate, 10 μM final; 37 °C; 100 μl.
Sequence of recombinant human matrix metalloproteinase-9 (重组人基质金属蛋白酶-9) (P14780 94-707): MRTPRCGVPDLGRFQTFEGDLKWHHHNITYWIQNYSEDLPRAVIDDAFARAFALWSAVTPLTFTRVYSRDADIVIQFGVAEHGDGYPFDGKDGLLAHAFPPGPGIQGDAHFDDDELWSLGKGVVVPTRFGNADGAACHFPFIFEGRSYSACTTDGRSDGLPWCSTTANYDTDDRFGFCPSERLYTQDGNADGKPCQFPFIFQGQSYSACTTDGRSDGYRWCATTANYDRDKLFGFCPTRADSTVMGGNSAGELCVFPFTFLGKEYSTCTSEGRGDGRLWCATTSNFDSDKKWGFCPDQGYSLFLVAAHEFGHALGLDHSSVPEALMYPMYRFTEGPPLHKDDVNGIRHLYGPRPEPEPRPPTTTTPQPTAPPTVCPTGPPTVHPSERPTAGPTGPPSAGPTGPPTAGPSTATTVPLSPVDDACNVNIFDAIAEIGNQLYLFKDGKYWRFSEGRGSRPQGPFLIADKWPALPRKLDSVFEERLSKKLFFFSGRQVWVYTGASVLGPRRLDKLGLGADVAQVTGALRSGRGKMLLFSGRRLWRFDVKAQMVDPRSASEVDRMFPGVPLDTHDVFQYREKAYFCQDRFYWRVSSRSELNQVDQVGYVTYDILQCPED

The sequence “PEPEFHLISAFWPSLPSYLDAA [实施例1, TIMP-mimetic 22-residue peptide made by Fmoc solid-phase synthesis]” registered an EC50 in assay [1] of 13.2 µM. Further, the IC50 in assay [2] stood at 75.1 µM; in assay [3] it was 25.8 µM.
